Test results from paper PMC5482573 (eLife, 2017).

T1: α-COP (M. musculus, in recombinant coatomer) (M. musculus, UniProt Q8CIE6 1-1224)
T1 construct: alpha-COP, coatomer subunit alpha, M. musculus; Stood in the assays as a subunit of the whole heptameric coatomer; source: SF9 insect cells (baculovirus), as part of recombinant coatomer, purified
T1 sequence: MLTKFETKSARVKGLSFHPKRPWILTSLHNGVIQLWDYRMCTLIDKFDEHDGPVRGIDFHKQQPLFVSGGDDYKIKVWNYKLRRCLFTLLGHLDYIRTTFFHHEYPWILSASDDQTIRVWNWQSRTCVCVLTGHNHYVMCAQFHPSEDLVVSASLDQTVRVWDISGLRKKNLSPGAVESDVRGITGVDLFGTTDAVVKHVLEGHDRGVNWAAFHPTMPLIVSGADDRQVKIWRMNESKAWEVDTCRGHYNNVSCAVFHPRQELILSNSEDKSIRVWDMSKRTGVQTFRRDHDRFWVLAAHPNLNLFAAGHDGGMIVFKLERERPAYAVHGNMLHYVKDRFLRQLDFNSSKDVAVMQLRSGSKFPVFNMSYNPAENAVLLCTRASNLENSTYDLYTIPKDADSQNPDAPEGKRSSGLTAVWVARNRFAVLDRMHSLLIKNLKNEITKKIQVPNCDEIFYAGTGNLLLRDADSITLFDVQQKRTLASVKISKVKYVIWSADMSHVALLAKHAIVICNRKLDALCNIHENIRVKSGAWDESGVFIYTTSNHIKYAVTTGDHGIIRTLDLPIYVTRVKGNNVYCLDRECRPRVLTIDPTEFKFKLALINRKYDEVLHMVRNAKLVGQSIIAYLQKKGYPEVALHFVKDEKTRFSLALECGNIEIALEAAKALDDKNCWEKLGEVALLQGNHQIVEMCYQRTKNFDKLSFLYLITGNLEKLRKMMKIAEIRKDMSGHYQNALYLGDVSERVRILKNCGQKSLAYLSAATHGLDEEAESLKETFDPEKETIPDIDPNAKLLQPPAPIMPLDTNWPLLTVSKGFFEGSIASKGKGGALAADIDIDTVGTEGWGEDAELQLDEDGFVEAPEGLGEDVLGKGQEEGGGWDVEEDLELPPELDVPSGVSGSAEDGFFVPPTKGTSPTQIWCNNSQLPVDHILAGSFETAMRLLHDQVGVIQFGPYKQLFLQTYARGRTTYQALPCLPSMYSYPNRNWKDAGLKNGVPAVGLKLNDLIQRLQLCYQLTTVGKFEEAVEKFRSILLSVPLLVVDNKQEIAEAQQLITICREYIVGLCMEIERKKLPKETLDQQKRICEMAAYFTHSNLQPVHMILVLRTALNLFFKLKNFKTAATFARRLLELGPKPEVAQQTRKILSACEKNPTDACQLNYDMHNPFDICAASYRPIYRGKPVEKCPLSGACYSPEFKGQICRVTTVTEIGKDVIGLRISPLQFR

B1: β-COP (M. musculus, in recombinant coatomer) (natural protein)
chain: MTAAENVCYTLINVPMDSEPPSEISLKNDLEKGDVKSKTEALKKVIIMILNGEKLPGLLMTIIRFVLPLQDHTIKKLLLVFWEIVPKTTPDGRLLHEMILVCDAYRKDLQHPNEFIRGSTLRFLCKLKEAELLEPLMPAIRACLEHRHSYVRRNAVLAIYTIYRNFEHLIPDAPELIHDFLVNEKDASCKRNAFMMLIHADQDRALDYLSTCIDQVQTFGDILQLVIVELIYKVCHANPSERARFIRCIYNLLQSSSPAVKYEAAGTLVTLSSAPTAIKAAAQCYIDLIIKESDNNVKLIVLDRLVELKEHPAHERVLQDLVMDILRVLSTPDLEVRKKTLQLALDLVSSRNVEELVIVLKKEVIKTNNVSEHEDTDKYRQLLVRTLHSCSVRFPDMAANVIPVLMEFLSDSNEAAAADVLEFVREAIQRFDNLRMLIVEKMLEVFHAIKSVKIYRGALWILGEYCSTKEDIQSVMTEVRRSLGEIPIVESEIKKEAGELKPEEEITVGPVQKLVTEMGTYATQSALSSSRPTKKEEDRPPLRGFLLDGDFFVAASLATTLTKIALRYVALVQEKKKQNSFVAEAMLLMATILHLGKSSLPKKPITDDDVDRISLCLKVLSECSPLMNDIFNKECRQSLSQMLSAKLEEEKLSQKKESEKRNVTVQPDDPISFMQLTAKNEMNCKEDQFQLSLLAAMGNTQRKEAADPLASKLNKVTQLTGFSDPVYAEAYVHVNQYDIVLDVLVVNQTSDTLQNCTLELATLGDLKLVEKPSPLTLAPHDFANIKANVKVASTENGIIFGNIVYDVSGAASDRNCVVLSDIHIDIMDYIQPATCTDAEFRQMWAEFEWENKVTVNTNMTDLNDYLQHILKSTNMKCLTPEKALSGYCGFMAANLYARSIFGEDALANVSIEKPVHQGPDAAVTGHIRIRAKSQGMALSLGDKINLSQKKTSL
notes: beta-COP, coatomer subunit beta, M. musculus. numbers count on: the construct with its N-terminal His-tag, shifted by 15 residues relative to Q9JIF7; Stood in the assays as a subunit of the whole heptameric coatomer; The coatomer of the photo-cross-linking is called only 'coatomer'; source: SF9 insect cells (baculovirus), as part of recombinant coatomer, purified
B2: β’-COP (M. musculus, in recombinant coatomer) (natural protein)
chain: MPLRLDIKRKLTARSDRVKSVDLHPTEPWMLASLYNGSVCVWNHETQTLVKTFEVCDLPVRAAKFVARKNWVVTGADDMQIRVFNYNTLERVHMFEAHSDYIRCIAVHPTQPFILTSSDDMLIKLWDWDKKWSCSQVFEGHTHYVMQIVINPKDNNQFASASLDRTIKVWQLGSSSPNFTLEGHEKGVNCIDYYSGGDKPYLISGADDRLVKIWDYQNKTCVQTLEGHAQNVSCASFHPELPIIITGSEDGTVRIWHSSTYRLESTLNYGMERVWCVASLRGSNNVALGYDEGSIIVKLGREEPAMSMDANGKIIWAKHSEVQQANLKAMGDTEIKDGERLPLAVKDMGSCEIYPQTIQHNPNGRFVVVCGDGEYIIYTAMALRNKSFGSAQEFAWAHDSSEYAIRESNSIVKIFKNFKEKKSFKPDFGAESIYGGFLLGVRSVNGLAFYDWENTELIRRIEIQPKHIFWSDSGELVCIATEESFFILKYLSEKVLAAQETHEGVTEDGIEDAFEVLGEIQEIVKTGLWVGDCFIYTSSVNRLNYYVGGEIVTIAHLDRTMYLLGYIPKDNRLYLGDKELNIVSYSLLVSVLEYQTAVMRRDFSMADKVLPTIPKEQRTRVAHFLEKQGFKQQALTVSTDPEHRFELALQLGELKIAYQLAVEAESEQKWKQLAELAISKCQFSLAQECLHHAQDYGGLLLLATASGNASMVNKLAEGAERDGKNNVAFMSYFLQGKLDACLELLIRTGRLPEAAFLARTYLPSQVSRVVKLWRENLSKVNQKAAESLADPTEYENLFPGLKEAFVVEEWVKETHADLWPAKQYPLVTPNEERNVMEEAKGFQPSRPTAQQEPDGKPASSPVIMASQTTHKEEKSLLELEVDLDNLELEDIDTTDINLDEDILDD
notes: beta'-COP, coatomer subunit beta', M. musculus; Stood in the assays as a subunit of the whole heptameric coatomer; source: SF9 insect cells (baculovirus), as part of recombinant coatomer, purified
B3: S. cerevisiae myristoylated Arf1 (natural protein)
chain: MGLFASKLFSNLFGNKEMRILMVGLDGAGKTTVLYKLKLGEVITTIPTIGFNVETVQYKNISFTVWDVGGQDRIRSLWRHYYRNTEGVIFVVDSNDRSRIGEAREVMQRMLNEDELRNAAWLVFANKQDLPEAMSAAEITEKLGLHSIRNRPWFIQATCATSGEGLYEGLEWLSNSLKNST
modifications: myristoylated
notes: Arf1 (ADP-ribosylation factor 1), S. cerevisiae, loaded with GTPγS on membranes; also called γArf1 (central); βArf1 (peripheral); source: E. coli, purified
B4: R. norvegicus ArfGAP2, full-length, N-terminally His-tagged (enzyme)
chain: not shown
notes: PDB 2P57 was fitted for it; source: insect cells, purified (Ni-NTA, gel filtration)

Key:
Conditions in all cases: both partners purified
[1] = target: T1, α-COP (M. musculus, in recombinant …); experiment: cryo-EM structure; cryo-electron tomography and subtomogram averaging of the COPI leaf, 9.2 Å; coat assembled in vitro from coatomer (840 nM), Arf1 (2 μM), GTPγS, ARNO and GUVs, 37°C, 50 mM HEPES pH 7.4, 50 mM KOAc, 1 mM MgCl2
[2] = target: B1; experiment: as above
[3] = target: B4; experiment: cryo-EM structure; COPI coated vesicles with GTPγS incubated 15–20 min with a 10 molar excess of ArfGAP2; subtomogram averaging, difference map and classification; class with ArfGAP2 at 10.1 Å
[4] = target: B2; experiment: as above
[5] = target: B1; experiment: as above

| Binder | binding result [1] | binding result [2] | binding result [3] | binding result [4] | binding result [5] |
| --- | --- | --- | --- | --- | --- |
| B1 | binds | – | – | – | – |
| B2 | binds | binds | – | – | – |
| B3 | – | binds | binds | – | – |
| B4 | – | – | – | binds | binds |
